Measurements: IntAct's records for PubMed 22643122

B1: Mitogen-activated protein kinase 4 (Arabidopsis thaliana (Mouse-ear cress)), Q39024 (parent)
chain: MSAESCFGSSGDQSSSKGVATHGGSYVQYNVYGNLFEVSRKYVPPLRPIGRGAYGIVCAATNSETGEEVAIKKIGNAFDNIIDAKRTLREIKLLKHMDHENVIAVKDIIKPPQRENFNDVYIVYELMDTDLHQIIRSNQPLTDDHCRFFLYQLLRGLKYVHSANVLHRDLKPSNLLLNANCDLKLGDFGLARTKSETDFMTEYVVTRWYRAPELLLNCSEYTAAIDIWSVGCILGETMTREPLFPGKDYVHQLRLITELIGSPDDSSLGFLRSDNARRYVRQLPQYPRQNFAARFPNMSAGAVDLLEKMLVFDPSRRITVDEALCHPYLAPLHDINEEPVCVRPFNFDFEQPTLTEENIKELIYRETVKFNPQDSV
partner: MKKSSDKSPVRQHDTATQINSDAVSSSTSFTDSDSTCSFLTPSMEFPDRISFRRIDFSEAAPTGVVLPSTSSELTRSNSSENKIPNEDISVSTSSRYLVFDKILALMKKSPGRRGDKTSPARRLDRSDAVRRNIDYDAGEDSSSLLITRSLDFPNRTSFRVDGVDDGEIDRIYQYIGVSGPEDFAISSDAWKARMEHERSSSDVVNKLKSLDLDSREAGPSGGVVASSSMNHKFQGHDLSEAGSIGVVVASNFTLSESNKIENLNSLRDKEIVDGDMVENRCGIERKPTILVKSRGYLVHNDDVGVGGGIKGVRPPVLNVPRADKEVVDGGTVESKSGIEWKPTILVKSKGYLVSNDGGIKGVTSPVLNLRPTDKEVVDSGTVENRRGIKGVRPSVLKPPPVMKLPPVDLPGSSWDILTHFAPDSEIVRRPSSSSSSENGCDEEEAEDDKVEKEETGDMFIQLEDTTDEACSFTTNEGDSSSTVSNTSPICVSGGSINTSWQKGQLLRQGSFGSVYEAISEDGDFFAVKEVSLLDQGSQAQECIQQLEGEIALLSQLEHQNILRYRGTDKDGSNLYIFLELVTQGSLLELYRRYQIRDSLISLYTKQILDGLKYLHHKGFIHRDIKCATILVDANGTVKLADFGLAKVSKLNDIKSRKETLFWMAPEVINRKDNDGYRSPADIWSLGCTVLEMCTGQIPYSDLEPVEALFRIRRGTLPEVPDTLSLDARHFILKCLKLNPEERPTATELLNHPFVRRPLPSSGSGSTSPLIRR

Variants of: B1
Details: with mp3k2_arath MEKK2, O81472

Row | effect of a mutation on the interaction | Variant
1 | disrupting interaction | MSAESCFGSSGDQSSSKGVATHGGSYVQYNVYGNLFEVSRKYVPPLRPIGRGAYGIVCAATNSETGEEVAIKKIGNAFDNIIDAKRTLREIKLLKHMDHENVIAVKDIIKPPQRENFNDVYIVYELMDTDLHQIIRSNQPLTDDHCRFFLYQLLRGLKYVHSANVLHRDLKPSNLLLNANCDLKLEDFGLARTKSETDFMTEYVVTRWYRAPELLLNCSEYTAAIDIWSVGCILGETMTREPLFPGKDYVHQLRLITELIGSPDDSSLGFLRSDNARRYVRQLPQYPRQNFAARFPNMSAGAVDLLEKMLVFDPSRRITVDEALCHPYLAPLHDINEEPVCVRPFNFDFEQPTLTEENIKELIYRETVKFNPQDSV [G186E]
